Test results taken from patent US20240124575A1 (SIMCERE ZAIMING PHARMACEUTICAL, published 2024).
Like-named read-outs stand apart in the source and are kept apart here.

Assays:
monkey CD33 protein [1] = target: T1, monkey CD33 protein (monkey); experiment: ELISA, coated monkey CD33, antibody 0.1 nM
T1 construct: The printed catalogue numbers for murine and monkey CD33 may be interchanged; also called monkey CD33-His protein

monkey CD33 protein [2] = target: T1, monkey CD33 protein; experiment: ELISA, coated monkey CD33, antibody 100 nM
monkey CD33 protein [3] = target: T1, monkey CD33 protein; experiment: SPR (Biacore), antibody captured on Protein A chip, monkey CD33 protein as analyte
Method: (§1) The sample and running buffer was HBS-EP+ (10 mM HEPES, 150 mM NaCl, 3 mM EDTA, 0.05% surfactant P20) (GE Healthcare; BR-1006-69). The flow cell was set at 25° C. The sample block was set at 16° C. Both were pretreated with the running buffer. In each cycle, first, the antibody to be tested was captured using the Protein A chip, and then a single concentration of CD33 antigen protein was injected. The association and dissociation processes of the antibody with the antigen protein were recorded, and finally, the chip was regenerated using Glycine pH 1.5 (GE Healthcare; BR-1003-54). The association was determined by injecting different concentrations of recombinant human CD33-his in the solution and maintaining for 240 s, wherein the flow rate was 30 μL/min, and the protein was diluted in a 1:1 dilution ratio from 200 nM to obtain 5 concentrations in total. The dissociation phase was monitored for up to 600 s and triggered by switching from the sample solution to the running buffer. The surface was regenerated by washing with 10 mM glycine solution (pH 1.5) at a flow rate of 30 μL/min for 30 s. The difference in bulk refractive index was corrected by subtracting the responses obtained from the […]. Blank injections were also subtracted (=double reference). To calculate the apparent KD and other kinetic parameters, the Langmuir 1:1 model was used.
(§2) The assay on affinity of VHH-Fc antibodies for monkey CD33 protein (Sino Biological, Cat. No. 50712-M08H) was performed according to the method in Example 7.1.

monkey CD33 protein [4] = target: T1, monkey CD33 protein; experiment: ELISA, coated monkey CD33, antibody 10 nM
monkey CD33 protein [5] = target: T1, monkey CD33 protein; experiment: ELISA, coated monkey CD33, antibody 0.0001 nM
[6] = target: T2, monkey CD33 on HEK293T-monkey CD33 cells (monkey); experiment: FACS on HEK293T-monkey CD33 cells
T2 construct: whole, on cells

monkey CD33 protein [7] = target: T1, monkey CD33 protein; experiment: SPR (Biacore), antibody captured on Protein A chip, monkey CD33 protein as analyte; remark: listed apart in the source
Method: as §1, §2

human CD33-His [8] = target: T3, human CD33-His (human, UniProt P20138 18-259); experiment: SPR (Biacore), antibody captured on Protein A chip, human CD33-his as analyte
T3 construct: range 18-259; Bought protein; also called human CD33-his protein; hCD33-his; not shown: His tag
T3 sequence (P20138 18-259 limits assumed): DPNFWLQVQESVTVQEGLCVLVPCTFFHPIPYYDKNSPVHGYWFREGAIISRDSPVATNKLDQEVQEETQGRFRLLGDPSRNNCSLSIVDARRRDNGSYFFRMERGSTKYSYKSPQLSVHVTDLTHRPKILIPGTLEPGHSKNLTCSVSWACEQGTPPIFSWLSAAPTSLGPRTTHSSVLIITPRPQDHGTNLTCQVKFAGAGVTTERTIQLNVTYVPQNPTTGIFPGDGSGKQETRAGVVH
Method: as §1

human CD33-His [9] = target: T3, human CD33-His; experiment: as above; remark: listed apart in the source
Method: as §1

monkey CD33 protein [10] = target: T1, monkey CD33 protein; experiment: ELISA, coated monkey CD33, antibody 0.1 nM; remark: listed apart in the source
monkey CD33 protein [11] = target: T1, monkey CD33 protein; experiment: ELISA, coated monkey CD33, antibody 0.01 nM
monkey CD33 protein [12] = target: T1, monkey CD33 protein; experiment: ELISA, coated monkey CD33, antibody 0.001 nM
monkey CD33 protein [13] = target: T1, monkey CD33 protein; experiment: ELISA, coated monkey CD33, antibody 0.001 nM; remark: listed apart in the source
monkey CD33 protein [14] = target: T1, monkey CD33 protein; experiment: ELISA, coated monkey CD33, antibody 100 nM; remark: listed apart in the source
[15] = target: T2, monkey CD33 on HEK293T-monkey CD33 cells; experiment: FACS on HEK293T-monkey CD33 cells; remark: listed apart in the source
monkey CD33 protein [16] = target: T1, monkey CD33 protein; experiment: ELISA, coated monkey CD33, antibody 1 nM
monkey CD33 protein [17] = target: T1, monkey CD33 protein; experiment: ELISA, coated monkey CD33, antibody 1 nM; remark: listed apart in the source
monkey CD33 protein [18] = target: T1, monkey CD33 protein; experiment: ELISA, coated monkey CD33, antibody 0.0001 nM; remark: listed apart in the source
monkey CD33 protein [19] = target: T1, monkey CD33 protein; experiment: ELISA, coated monkey CD33, antibody 0.01 nM; remark: listed apart in the source
monkey CD33 protein [20] = target: T1, monkey CD33 protein; experiment: ELISA, coated monkey CD33, antibody 10 nM; remark: listed apart in the source

B1: C33B904 (antibody, human IgG1, kappa, V domains shown)
VH: EVQLVESGGGLVQPGRSLRLSCAASGFTFDDYAMHWVRQAPGKGLEWVSGIGWSGGSIVYADSVKGRFTISRDNAKNSLYLQMNSLRAEDTALYYCAKDSPYGDFFDYWGQGTLVTVSS
VL: DIVMTQSPDSLAVSLGERATINCKSSQTVFYSSNNKNYLAWYQQKPGQPPKLLISWASTRKSGVPDRFSGSGSGTDFTLTVSSLQAEDVAVYYCQHYYSTPYTFGQGTKLEIKR
notes: Control antibody, intact human IgG1; variable regions from US20190382481A1; also called C33B904 hIgG1; C331B904
Q: How did the OD450 (monkey CD33 protein [1]) turn out when B1 was run?
A: Its OD450 is 1.15 OD450.

Q: What about the OD450 (monkey CD33 protein [2]) of the same binder?
A: Its OD450 is 3.06 OD450.

Q: And the Kd (monkey CD33 protein [3])?
A: The Kd was 0.494 nM.

Q: What about the koff (monkey CD33 protein [3]) of the same binder?
A: The koff was 0.000497 s⁻¹.

Q: What about the kon (monkey CD33 protein [3]) of the same binder?
A: Its kon is 1.01e+06 M⁻¹ s⁻¹.

Q: And the OD450 (monkey CD33 protein [4])?
A: The OD450 was 3.23 OD450.

Q: What about the OD450 (monkey CD33 protein [5]) of the same binder?
A: The OD450 was 0.04 OD450.

Q: And the EC50 [6]?
A: The EC50 was 4.8 nM.

Q: And the “Max MFI” value [6]?
A: The value was 7880 MFI.

Q: And the Kd (monkey CD33 protein [7])?
A: Its Kd is 0.492 nM.

Q: And the koff (monkey CD33 protein [7])?
A: The koff was 0.000632 s⁻¹.

Q: And the kon (monkey CD33 protein [7])?
A: The kon was 1.29e+06 M⁻¹ s⁻¹.

Q: What about the Kd (human CD33-His [8]) of the same binder?
A: Its Kd is 0.155 nM.

Q: What about the koff (human CD33-His [8]) of the same binder?
A: The koff was 7.44e-05 s⁻¹.

Q: What about the kon (human CD33-His [8]) of the same binder?
A: The kon was 479000 M⁻¹ s⁻¹.

Q: And the Kd (human CD33-His [9])?
A: Its Kd is 0.157 nM.

Q: What about the koff (human CD33-His [9]) of the same binder?
A: Its koff is 4.08e-05 s⁻¹.

Q: And the kon (human CD33-His [9])?
A: Its kon is 260000 M⁻¹ s⁻¹.

Q: And the OD450 (monkey CD33 protein [10])?
A: The OD450 was 0.99 OD450.

Q: And the OD450 (monkey CD33 protein [11])?
A: Its OD450 is 0.29 OD450.

Q: What about the OD450 (monkey CD33 protein [12]) of the same binder?
A: Its OD450 is 0.07 OD450.

Q: What about the OD450 (monkey CD33 protein [13]) of the same binder?
A: The OD450 was 0.06 OD450.

Q: What about the OD450 (monkey CD33 protein [14]) of the same binder?
A: Its OD450 is 3.4 OD450.

Q: What about the EC50 [15] of the same binder?
A: Its EC50 is 5.7 nM.

Q: And the “Max MFI” value [15]?
A: Its value is 3590 MFI.

Q: And the OD450 (monkey CD33 protein [16])?
A: The OD450 was 2.73 OD450.

Q: What about the OD450 (monkey CD33 protein [17]) of the same binder?
A: Its OD450 is 2.52 OD450.

Q: And the OD450 (monkey CD33 protein [18])?
A: The OD450 was 0.06 OD450.

Q: And the OD450 (monkey CD33 protein [19])?
A: Its OD450 is 0.15 OD450.

Q: And the OD450 (monkey CD33 protein [20])?
A: The OD450 was 3.09 OD450.
